Data as given in paper PMC2700308.

Biological target: gp120 prebound to sCD4 (HIV-1, subtype B, strain YU2 | human) (UniProt P35961)
Assay: ITC

**Q.** For “S22 peptide, 22 amino acid tyrosine-sulfated peptide corresponding to the CCR5 N-terminus (from UniProt P51681 1-22)”, which Kd is on record?
**A.** The Kd was 2200 nM.
